Test results: PMC10916747, “Safety, biodistribution and radiation dosimetry of the Arg-Gly-Asp peptide ^99mTc-maraciclatide in healthy volunteers” (Nuclear Medicine Communications, 2024)
Numbered stars: 1 amine (or outer) side, 2 acyl side, 3 side chain; on linkers, the order of the positions; unused ones are H or OH. Bridge positions count the residues as written; N and C are the ends. Side chains are listed from the residue outwards. Peptide text beside a SMILES is read from it. * marks the point of attachment. X1 = C/C(=N\O)C(C)(C)NCCC(CCNC(C)(C)/C(C)=N/O)CCN*; Glutaryl = O=C(CCCC(=O)[*:2])[*:1]; X2 = NC(=O)COCC(=O)NCCOCCOCCOCCN*

Legend:
healthy volunteers [1] = assay: Phase 1 safety assessment (adverse events, vital signs, ECG, laboratory parameters)
Protocol: In 2003, a phase 1, placebo-controlled, observer-blinded, randomised, single ascending-dose study was performed. The study aimed to assess the safety of three intravenous levels of maraciclatide and the biodistribution and radiation dosimetry of ^99mTc-maraciclatide in healthy volunteers, assessing the potential of ^99mTc-maraciclatide as a radiopharmaceutical for diagnostic imaging.
Safety data on vital signs (heart rate, blood pressure, temperature, and oxygen saturation), electrocardiograms (ECG), laboratory parameters and physical examinations (general appearance, lung, abdominal, cardiovascular, and neurological exam by a qualified clinician) were measured prior to administration, and at multiple time points up to 7 days following administration. Based on clinical assessment, new abnormal or worsening clinical findings were defined as a change from the participant’s normal baseline to abnormal. All abnormal changes were recorded as adverse events (AEs).
Safety assessments were performed by an observer blinded to the administration of the placebo and ^99mTc-maraciclatide. A thorough review of safety data was performed before the decision was made to escalate to the higher dose in participants.

clinical = assay: clinical; set-up: species or system human; settings: human, in vivo, iv
Protocol: (§1) To calculate ^99mTc-maraciclatide ex-vivo activity, blood, plasma, urine, and faeces were collected at various time points after administration. Blood and plasma samples were collected at 10 min, 30 min, 1 h, 2 h, 4 h, 8 h, 24 h, 48 h, 72 h, and 7 days post-administration. Concentrations of maraciclatide in plasma were assayed using the LC-MS method (LOQ was 0.5 ng/ml). Urine was also collected at the same time points (if possible) up to 24 h post-administration. Faecal samples were collected as voided for up to 24 h post-administration. Assayed samples for ^99mTc-maraciclatide content were then measured using a gamma counter.
(§2) Concentrations of maraciclatide in plasma were assayed using the LC-MS method (LOQ was 0.5 ng/ml). The mean apparent terminal elimination half-life was approximately 1 h. Overall, systemic clearance was approximately 6.7 ml/min/kg, whilst the mean apparent volume of distribution was approximately 520 ml/kg. The majority of ^99mTc activity was excreted through the urinary pathway and GI tract, 55% and 16%, respectively.

healthy volunteers [2] = assay: clinical; set-up: species or system human; settings: in vivo, iv
Protocol: as §1, §2

healthy volunteers [3] = system: healthy volunteers; set-up: method as in PMID 17353156; settings: human urine, highest dose group (150 micrograms maraciclatide), reversed-phase LC ion-trap MS; cited from earlier work
integrin receptor αvβ3 = settings: background statement, no reference printed; cited from earlier work

C/C(=N\O)C(C)(C)NCCC(CCNC(=O)CCCC(=O)NCCCC[C@@H]1NC(=O)CSC[C@@H](C(=O)NCCOCCOCCOCCNC(=O)COCC(N)=O)NC(=O)[C@H](Cc2ccccc2)NC(=O)[C@@H]2CSSC[C@H](NC1=O)C(=O)N[C@@H](CCCNC(=N)N)C(=O)NCC(=O)N[C@@H](CC(=O)O)C(=O)N2)CCNC(C)(C)/C(C)=N/O (stereo partly shown) [Maraciclatide] ({CH2CO}-K([Glutaryl-X1])CRGDCFC-X2; disulfide 2-6; thioether N-8; N-terminus and C-terminus assumed)
Abdominal pain: Cause of AE (healthy volunteers [1]; 15 μg maraciclatide (n = 8)): IMP
Blood phosphate decrease: No. with AEs (healthy volunteers [1]; 15 μg maraciclatide (n = 8)): 0
Cardiac disorder: No. of AEs (healthy volunteers [1]; 15 μg maraciclatide (n = 8)): 0
Cardiac disorder: No. with AEs (healthy volunteers [1]; 15 μg maraciclatide (n = 8)): 0
Contact dermatitis: Cause of AE (healthy volunteers [1]; 15 μg maraciclatide (n = 8)): Procedural complication
Contact dermatitis: No. of AEs (healthy volunteers [1]; 15 μg maraciclatide (n = 8)): 1
Contact dermatitis: No. with AEs (healthy volunteers [1]; 15 μg maraciclatide (n = 8)): 1
Crystal urine present: No. of AEs (healthy volunteers [1]; 15 μg maraciclatide (n = 8)): 0
Crystal urine present: No. with AEs (healthy volunteers [1]; 15 μg maraciclatide (n = 8)): 0
Diarrhoea: Cause of AE (healthy volunteers [1]; 15 μg maraciclatide (n = 8)): IMP
Diarrhoea: No. of AEs (healthy volunteers [1]; 15 μg maraciclatide (n = 8)): 1
Diarrhoea: No. with AEs (healthy volunteers [1]; 15 μg maraciclatide (n = 8)): 1
Dizziness: Cause of AE (healthy volunteers [1]; 15 μg maraciclatide (n = 8)): IMP
Dizziness: No. of AEs (healthy volunteers [1]; 15 μg maraciclatide (n = 8)): 1
Dizziness: No. with AEs (healthy volunteers [1]; 15 μg maraciclatide (n = 8)): 1
ECG PR shortened: No. of AEs (healthy volunteers [1]; 15 μg maraciclatide (n = 8)): 0
ECG PR shortened: No. with AEs (healthy volunteers [1]; 15 μg maraciclatide (n = 8)): 0
ECG QRS complex prolonged: No. of AEs (healthy volunteers [1]; 15 μg maraciclatide (n = 8)): 0
ECG QRS complex prolonged: No. with AEs (healthy volunteers [1]; 15 μg maraciclatide (n = 8)): 0
Herpes simplex virus: No. with AEs (healthy volunteers [1]; 15 μg maraciclatide (n = 8)): 0
Hyperkalaemia: No. of AEs (healthy volunteers [1]; 15 μg maraciclatide (n = 8)): 0
Hyperkalaemia: No. with AEs (healthy volunteers [1]; 15 μg maraciclatide (n = 8)): 0
Hypoaesthesia: Cause of AE (healthy volunteers [1]; 15 μg maraciclatide (n = 8)): IMP
Hypoaesthesia: No. of AEs (healthy volunteers [1]; 15 μg maraciclatide (n = 8)): 1
Hypoaesthesia: No. with AEs (healthy volunteers [1]; 15 μg maraciclatide (n = 8)): 1
Infection: No. of AEs (healthy volunteers [1]; 15 μg maraciclatide (n = 8)): 1
Infection: No. with AEs (healthy volunteers [1]; 15 μg maraciclatide (n = 8)): 1
Blood phosphate decrease: No. with AEs (healthy volunteers [1]; 75 μg maraciclatide (n = 8)): 1
Cardiac disorder: No. of AEs (healthy volunteers [1]; 75 μg maraciclatide (n = 8)): 1
Cardiac disorder: No. with AEs (healthy volunteers [1]; 75 μg maraciclatide (n = 8)): 1
Crystal urine present: No. of AEs (healthy volunteers [1]; 75 μg maraciclatide (n = 8)): 0
Crystal urine present: No. with AEs (healthy volunteers [1]; 75 μg maraciclatide (n = 8)): 0
Dizziness: No. of AEs (healthy volunteers [1]; 75 μg maraciclatide (n = 8)): 0
Dizziness: No. with AEs (healthy volunteers [1]; 75 μg maraciclatide (n = 8)): 0
ECG PR shortened: No. of AEs (healthy volunteers [1]; 75 μg maraciclatide (n = 8)): 0
ECG PR shortened: No. with AEs (healthy volunteers [1]; 75 μg maraciclatide (n = 8)): 0
ECG QRS complex prolonged: Cause of AE (healthy volunteers [1]; 75 μg maraciclatide (n = 8)): Unrelated medical condition
ECG QRS complex prolonged: No. of AEs (healthy volunteers [1]; 75 μg maraciclatide (n = 8)): 1
ECG QRS complex prolonged: No. with AEs (healthy volunteers [1]; 75 μg maraciclatide (n = 8)): 1
Herpes simplex virus: No. with AEs (healthy volunteers [1]; 75 μg maraciclatide (n = 8)): 0
Hyperkalaemia: No. of AEs (healthy volunteers [1]; 75 μg maraciclatide (n = 8)): 0
Hyperkalaemia: No. with AEs (healthy volunteers [1]; 75 μg maraciclatide (n = 8)): 0
Hypoaesthesia: No. of AEs (healthy volunteers [1]; 75 μg maraciclatide (n = 8)): 0
Hypoaesthesia: No. with AEs (healthy volunteers [1]; 75 μg maraciclatide (n = 8)): 0
Hyporeflexia: Cause of AE (healthy volunteers [1]; 75 μg maraciclatide (n = 8)): Other
Hyporeflexia: No. of AEs (healthy volunteers [1]; 75 μg maraciclatide (n = 8)): 1
Hyporeflexia: No. with AEs (healthy volunteers [1]; 75 μg maraciclatide (n = 8)): 1
Infection: No. of AEs (healthy volunteers [1]; 75 μg maraciclatide (n = 8)): 0
Infection: No. with AEs (healthy volunteers [1]; 75 μg maraciclatide (n = 8)): 0
Blood phosphate decrease: No. with AEs (healthy volunteers [1]; 150 μg maraciclatide (n = 8)): 0
Cardiac disorder: No. of AEs (healthy volunteers [1]; 150 μg maraciclatide (n = 8)): 0
Cardiac disorder: No. with AEs (healthy volunteers [1]; 150 μg maraciclatide (n = 8)): 0
Crystal urine present: Cause of AEs (healthy volunteers [1]; 150 μg maraciclatide (n = 8)): IMP
Crystal urine present: No. of AEs (healthy volunteers [1]; 150 μg maraciclatide (n = 8)): 1
Crystal urine present: No. with AEs (healthy volunteers [1]; 150 μg maraciclatide (n = 8)): 1
Diarrhoea: No. of AEs (healthy volunteers [1]; 150 μg maraciclatide (n = 8)): 0
Diarrhoea: No. with AEs (healthy volunteers [1]; 150 μg maraciclatide (n = 8)): 0
Dizziness: No. of AEs (healthy volunteers [1]; 150 μg maraciclatide (n = 8)): 0
Dizziness: No. with AEs (healthy volunteers [1]; 150 μg maraciclatide (n = 8)): 0
ECG PR shortened: No. of AEs (healthy volunteers [1]; 150 μg maraciclatide (n = 8)): 0
ECG PR shortened: No. with AEs (healthy volunteers [1]; 150 μg maraciclatide (n = 8)): 0
ECG QRS complex prolonged: No. of AEs (healthy volunteers [1]; 150 μg maraciclatide (n = 8)): 0
ECG QRS complex prolonged: No. with AEs (healthy volunteers [1]; 150 μg maraciclatide (n = 8)): 0
Herpes simplex virus: No. with AEs (healthy volunteers [1]; 150 μg maraciclatide (n = 8)): 1
Hyperkalaemia: Cause of AEs (healthy volunteers [1]; 150 μg maraciclatide (n = 8)): Procedural complication
Hyperkalaemia: No. of AEs (healthy volunteers [1]; 150 μg maraciclatide (n = 8)): 1
Hyperkalaemia: No. with AEs (healthy volunteers [1]; 150 μg maraciclatide (n = 8)): 1
Hypoaesthesia: No. of AEs (healthy volunteers [1]; 150 μg maraciclatide (n = 8)): 0
Hypoaesthesia: No. with AEs (healthy volunteers [1]; 150 μg maraciclatide (n = 8)): 0
Hyporeflexia: No. of AEs (healthy volunteers [1]; 150 μg maraciclatide (n = 8)): 0
Hyporeflexia: No. with AEs (healthy volunteers [1]; 150 μg maraciclatide (n = 8)): 0
Infection: No. of AEs (healthy volunteers [1]; 150 μg maraciclatide (n = 8)): 1
Infection: No. with AEs (healthy volunteers [1]; 150 μg maraciclatide (n = 8)): 1
AEs deemed related to maraciclatide (number) (healthy volunteers [1]; in vivo): 7
AEs deemed related to maraciclatide (percent) (healthy volunteers [1]; in vivo): 23%
Vd (clinical): ~0.52 L/kg
clearance (clinical): ~6.7 mL/min/kg
half-life (clinical): ~1 h
plasma concentration time course (healthy volunteers [2]): bi-exponential decline
metabolites in urine (healthy volunteers [3]): no metabolites were detected
species observed in urine samples (in-vivo stability) (healthy volunteers [3]): Only intact maraciclatide was observed
affinity to αvβ3 (integrin receptor αvβ3): nanomolar affinity
